In US20060142192A1 (ZymoGenetics, published 2006):

Assays:
Test in all cases: flow cytometry, biotinylated IL-17C (1 ug/ml) + SA-PE on transiently transfected 293fb cells
human ZcytoR21x1 = biological target: T1, human ZcytoR21x1 (human, UniProt Q8NFR9 24-667)
T1 construct: also called hcytor21x1; IL-17RE
T1 sequence: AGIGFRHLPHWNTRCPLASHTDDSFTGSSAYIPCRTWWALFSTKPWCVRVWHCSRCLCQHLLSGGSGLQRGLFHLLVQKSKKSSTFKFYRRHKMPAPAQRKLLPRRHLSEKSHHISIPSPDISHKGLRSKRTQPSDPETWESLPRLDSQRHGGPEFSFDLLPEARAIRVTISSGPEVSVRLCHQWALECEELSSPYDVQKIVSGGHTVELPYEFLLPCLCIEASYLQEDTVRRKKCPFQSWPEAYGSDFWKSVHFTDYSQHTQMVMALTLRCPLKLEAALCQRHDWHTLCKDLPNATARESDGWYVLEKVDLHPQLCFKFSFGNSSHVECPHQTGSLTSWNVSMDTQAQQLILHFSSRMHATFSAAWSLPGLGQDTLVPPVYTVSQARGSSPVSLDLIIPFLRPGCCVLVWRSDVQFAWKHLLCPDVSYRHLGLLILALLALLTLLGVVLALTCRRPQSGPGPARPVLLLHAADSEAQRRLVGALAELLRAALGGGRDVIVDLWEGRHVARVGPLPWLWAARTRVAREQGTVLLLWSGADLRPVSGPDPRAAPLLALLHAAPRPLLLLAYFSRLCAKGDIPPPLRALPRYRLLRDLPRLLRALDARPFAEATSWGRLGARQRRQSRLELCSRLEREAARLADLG
Protocol: (§1) 293fb cells that had been transfected with expression vectors encoding human ZcytoR21x1 and ZcytoR21x2 were assessed for their ability to bind biotinylated human IL-17C. Control transfections included 1) no DNA transfection, 2) vector only (pzmp11), and 3) human IL17R. 10⁶ cells were removed from transfected suspension cultures at day 1, day 2, day 3, and day 5. Cells were pelleted and resuspended in 100 ul of staining media (SM), which is HBSS plus 1 mg/ml bovine serum albumin (BSA), 10 mM Hepes, and 0.1% sodium azide (w/v). Biotinylated human IL-17C was incubated with the cells on ice for 45 minutes at a concentration of 1 ug/ml. An APC conjugated anti-human CD8 antibody (BD Pharmingen; cat.#555369) was also added at 1:25 dilution. After 30 minutes, excess cytokine and antibody was washed away with SM and the cells were incubated with a 1:100 dilution of streptavidin conjugated to phycoerythrin (SA-PE; BD Pharmingen; cat# 554061) for 30 minutes on ice. Excess SA-PE was washed away and cells were analyzed by flow cytometry.
(§2) The amount of cytokine binding was detected from the change in the mean fluorescence intensity of the cytokine staining relative to negative controls —1) no DNA transfection and 2) vector only. […] Binding was also seen to human IL-17R.

human IL-17R = biological target: T2, human IL-17R (human, UniProt Q96F46 33-866)
T2 construct: whole, on cells
T2 sequence (looked up): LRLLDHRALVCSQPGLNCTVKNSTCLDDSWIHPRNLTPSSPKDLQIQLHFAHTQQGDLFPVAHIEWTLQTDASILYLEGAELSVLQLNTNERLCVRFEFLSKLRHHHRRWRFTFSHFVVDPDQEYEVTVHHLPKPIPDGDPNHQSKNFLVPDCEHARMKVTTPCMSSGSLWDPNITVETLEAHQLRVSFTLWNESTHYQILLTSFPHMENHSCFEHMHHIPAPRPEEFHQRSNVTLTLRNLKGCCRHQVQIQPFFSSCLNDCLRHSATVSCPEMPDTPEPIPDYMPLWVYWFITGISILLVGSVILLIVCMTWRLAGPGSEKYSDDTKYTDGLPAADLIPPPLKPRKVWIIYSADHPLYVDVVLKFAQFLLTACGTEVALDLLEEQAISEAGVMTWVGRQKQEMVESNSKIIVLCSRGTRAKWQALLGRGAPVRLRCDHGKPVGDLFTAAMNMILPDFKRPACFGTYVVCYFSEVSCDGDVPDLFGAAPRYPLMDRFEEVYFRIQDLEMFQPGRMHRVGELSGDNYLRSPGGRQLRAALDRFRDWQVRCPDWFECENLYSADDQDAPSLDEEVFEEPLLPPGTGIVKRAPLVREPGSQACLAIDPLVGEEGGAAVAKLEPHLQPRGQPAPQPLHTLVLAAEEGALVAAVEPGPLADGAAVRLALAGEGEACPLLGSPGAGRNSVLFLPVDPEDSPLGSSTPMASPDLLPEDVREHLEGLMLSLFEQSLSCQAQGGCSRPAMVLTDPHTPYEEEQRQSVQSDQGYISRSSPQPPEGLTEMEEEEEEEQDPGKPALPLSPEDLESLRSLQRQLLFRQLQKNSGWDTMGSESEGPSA
Protocol: as §1, §2

human ZcytoR21x2 = biological target: T3, human ZcytoR21x2 (human, UniProt Q8NFR9 24-667)
T3 construct: also called hcytor21x2
T3 sequence: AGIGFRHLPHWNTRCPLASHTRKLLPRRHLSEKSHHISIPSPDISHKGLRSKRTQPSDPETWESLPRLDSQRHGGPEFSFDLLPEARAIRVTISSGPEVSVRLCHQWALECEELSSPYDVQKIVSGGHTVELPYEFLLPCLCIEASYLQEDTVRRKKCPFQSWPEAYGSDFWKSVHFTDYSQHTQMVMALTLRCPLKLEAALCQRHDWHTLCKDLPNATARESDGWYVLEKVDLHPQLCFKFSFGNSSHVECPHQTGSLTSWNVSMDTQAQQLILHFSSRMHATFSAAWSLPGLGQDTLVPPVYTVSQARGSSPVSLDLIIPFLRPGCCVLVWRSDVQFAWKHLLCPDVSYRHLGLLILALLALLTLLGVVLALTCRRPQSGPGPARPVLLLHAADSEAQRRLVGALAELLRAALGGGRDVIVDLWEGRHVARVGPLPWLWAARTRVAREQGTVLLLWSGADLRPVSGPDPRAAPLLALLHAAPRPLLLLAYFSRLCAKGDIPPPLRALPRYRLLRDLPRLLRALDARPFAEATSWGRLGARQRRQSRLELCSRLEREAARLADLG
Protocol: as §1, §2

Measured: binding result

B1: human IL-17C (ligand)
chain: HHDPSLRGHPHSHGTPHCYSAEELPLGQAPPHLLARGAKWGQALPVALVSSLEAASHRGRHERPSATTQCPVLRPEEVLEADTHQRSISPWRYRVDTDEDRYPQKLAFAECLCRGCIDARTGRETAALNSVRLLQSLLVLRRRPCSRDGSGLPTPGAFAFHTEFIHVPVGCTCVLPRSV
modifications: biotin label in the binding assays (sites not given); unlabelled in the signalling assays
notes: it is the last residue of the open reading frame as I know it; Recombinant forms made carried a C-terminal Glu-Glu tag (BHK) or His tag (293F); also called biotinylated human IL-17C; human IL-17C (A903G)
binds: all assays above
